How the values were obtained:
[1] = biological target: rTBL-1 R103Q mutant lectin (Phaseolus acutifolius); experiment: SEC; ENrich SEC 650 column calibrated with gel filtration standard; 200 µL of sample at 10 mg/mL; 20 mM MES, 100 mM NaCl, pH 6.5; single peak at approximately 120 kDa
[2] = biological target: rTBL-1 R130Q mutant lectin (Phaseolus acutifolius); experiment: as above

Row | stoichiometry N [1] | stoichiometry N [2] | Substance
1 | 4 |  | rTBL-1 R103Q mutant lectin (natural protein)
2 |  | 4 | rTBL-1 R130Q mutant lectin (natural protein)

Reference: article PMC11676905
